Data published in paper PMC5588702 (Structure (London, England : 1993), 2014).

Target: DNA polymerase β polymerase domain with the V303M mutation (UniProt P06766 88-335, V303M, [methyl-13C]methionine labelled)
Assay: NMR

B1: oxidized form of the XRCC1 N-terminal domain, XRCC1(1-155), containing the C12-C20 disulfide bond (domain or fragment, human, UniProt P18887 2-155, looked up)
chain: PEIRLRHVVSCSSQDSTHCAENLLKADTYRKWRAAKAGEKTISVVLQLEKEEQIHSVDIGNDGSAFVEVLVGSSAGGAGEQDYEVLLVTSSFMSPSESRSGSNPNRVRMFGPDKLVRAAAEKRWDRVKIVCSQPYSKDSPFGLSFVRFHSPPDK
modifications: Cys12-Cys20 disulfide bond; N-terminal carbimate (CO2) adduct on Pro2; U-[15N] labelled
How did the “ratio KD(pol β•X1NTDred)/KD(pol β•X1NTDox)” value turn out when B1 was run?
The value was 25.2.
